Measurements reported in paper PMC6104945, “Structures of NHBA elucidate a broadly conserved epitope identified by a vaccine induced antibody” (PLoS ONE, 2018).

Target: T1, FL NHBA variant p3 (strain MC58) (Neisseria meningitidis MC58, UniProt Q7DD37, strain)
T1 construct: also called NHBAp3 (MC58); source: recombinant, purified protein antigen
Test: SPR; single-cycle kinetics, Biacore T200, 25°C; Fab 5H2 (~800-1100 RU) captured by anti-human Fab antibodies on CM5; NHBA antigen injected at 3.125-50 nM, 30 uL/min; HBS-EP pH 7.4; 1:1 Langmuir model with mass transfer term; triplicate
Settings: both partners purified

B1: Fab 5H2 (Fab derived from the vaccine-elicited human monoclonal antibody 5H2) (Fab, V domains shown)
VH: QVQLQESGPGLVKPSETLSLTCTVSGGSVSSGSSYWTWIRQTPGKGLEWIGYTSYSGSTKYNPSLKSRVTLSVDMSKNQFSLKLKSVTAADTAVYFCARDRFDVASGSSFDFWGQGTLVTVSS
VL: EIVMTQTPSSLSASVGDRVTITCRASQSISNYLNWYQQKPGTAPKLLTYAASSLGSGVPSRFSGSGSGTDLTLTISSLRPEDFATYYCQQSYGSPTFGQGTKLEIR
notes: they are in the structures deposited here: PDB 5NYX chains H, M, O and PDB 5O1R chains H, I (residues Q1-C226 modelled); they are in the structures deposited here: PDB 5NYX chains L, N, P and PDB 5O1R chains L, M (residues E1-E212 modelled); Recombinant Fab; variable region genes synthesised; also called huFab 5H2; source: Expi293 cells, transient transfection, purified from supernatant …
Question: For B1, which Kd is on record?
Answer: 0.4 nM
